{"source": "patent US20200199213A1", "about": "(Eli Lilly, published 2020)", "binders": {"B1": {"name": "cynomolgus ANGPTL3/8 complex (other)", "chain 1": "SRIDQDNSSFDSVSPEPKSRFAMLDDVKILANGLLQLGHGLKDFVHKTKGQINDIFQKLNIFDQSFYDLSLQTSEIKEEEKELRRTTYKLQVKNEEVKNMSLELNSKLESLLEEKILLQQKVKYLEEQLTNLIQNQPATPEHPEVTSLKSFVEKQDNSIKDLLQTVEEQYKQLNQQHSQIKEIENQLRMTNIQEPTEISLSSKPRAPRTTPFLQLNEIRNVKHDGIPADCTTIYNRGEHISGTYAIRPSNSQVFHVYCDVVSGSPWTLIQHRIDGSQNFNETWENYKYGFGRLDGEFWLGLEKIYSIVKQSNYVLRIELEDWKDNKHYIEYSFYLGNHETNYTLHVVKITGNVPNAIPENKDLVFSTWDHKAKGHFSCPESYSGGWWWHDECGENNLNGKYNKPRTKSKPERRRGLSWKSQNGRLYSIKSTKMLIHPTDSESFE", "chain 2": "APVSSPELAEHEELTLLFHGTLQLGQALNGVYKTTEGRLTKARNSLGLYGRTVELLGQEVSRGRDAAQELRASLLETQMEEDILQLKAEAIAEVLEEVAQAQKVLQDSVRQLEVQLRSAWLGPAYQEFEVLKAHADKQSHILWALTGHVQRQRREMVAQQHRLRQIQERIHKAALPA"}, "B2": {"name": "mouse ANGPTL3/8 complex (other)", "chain 1": "SRVDPDLSSFDSAPSEPKSRFAMLDDVKILANGLLQLGHGLKDFVHKTKGQINDIFQKLNIFDQSFYDLSLRTNEIKEEEKELRRTTSTLQVKNEEVKNMSVELNSKLESLLEEKTALQHKVRALEEQLTNLILSPAGAQEHPEVTSLKSFVEQQDNSIRELLQSVEEQYKQLSQQHMQIKEIEKQLRKTGIQEPSENSLSSKSRAPRTTPPLQLNETENTEQDDLPADCSAVYNRGEHTSGVYTIKPRNSQGFNVYCDTQSGSPWTLIQHRKDGSQDFNETWENYEKGFGRLDGEFWLGLEKIYAIVQQSNYILRLELQDWKDSKHYVEYSFHLGSHETNYTLHVAEIAGNIPGALPEHTDLMFSTWNHRAKGQLYCPESYSGGWWWNDICGENNLNGKYNKPRTKSRPERRRGIYWRPQSRKLYAIKSSKMMLQPTT", "chain 2": "VRPAPVAPLGGPEPAQYEELTLLFHGALQLGQALNGVYRATEARLTEAGHSLGLYDRALEFLGTEVRQGQDATQELRTSLSEIQVEEDALHLRAEATARSLGEVARAQQALRDTVRRLQVQLRGAWLGQAHQEFETLKARADKQSHLLWALTGHVQRQQREMAEQQQWLRQIQQRLHTAALPA"}}, "key": {"cynomolgus LPL": {"target": "T1, cynomolgus LPL (cynomolgus, UniProt A0A7N9D851 28-475)", "T1 sequence": "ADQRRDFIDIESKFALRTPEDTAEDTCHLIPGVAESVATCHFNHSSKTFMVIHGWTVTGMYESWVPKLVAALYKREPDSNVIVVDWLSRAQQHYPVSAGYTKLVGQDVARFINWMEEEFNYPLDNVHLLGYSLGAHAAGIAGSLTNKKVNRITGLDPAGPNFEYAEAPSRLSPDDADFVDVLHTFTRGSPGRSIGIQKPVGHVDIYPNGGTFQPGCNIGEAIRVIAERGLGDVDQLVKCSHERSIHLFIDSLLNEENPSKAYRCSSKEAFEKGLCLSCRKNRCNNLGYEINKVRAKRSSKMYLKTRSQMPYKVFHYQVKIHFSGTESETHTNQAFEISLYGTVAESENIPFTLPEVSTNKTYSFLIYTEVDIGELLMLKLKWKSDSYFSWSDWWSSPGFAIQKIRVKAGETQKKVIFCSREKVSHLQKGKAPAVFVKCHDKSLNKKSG", "assay": "cell-based or functional assay"}, "mouse LPL": {"target": "T2, mouse LPL (mouse, UniProt P11152 28-474)", "T2 sequence (looked up)": "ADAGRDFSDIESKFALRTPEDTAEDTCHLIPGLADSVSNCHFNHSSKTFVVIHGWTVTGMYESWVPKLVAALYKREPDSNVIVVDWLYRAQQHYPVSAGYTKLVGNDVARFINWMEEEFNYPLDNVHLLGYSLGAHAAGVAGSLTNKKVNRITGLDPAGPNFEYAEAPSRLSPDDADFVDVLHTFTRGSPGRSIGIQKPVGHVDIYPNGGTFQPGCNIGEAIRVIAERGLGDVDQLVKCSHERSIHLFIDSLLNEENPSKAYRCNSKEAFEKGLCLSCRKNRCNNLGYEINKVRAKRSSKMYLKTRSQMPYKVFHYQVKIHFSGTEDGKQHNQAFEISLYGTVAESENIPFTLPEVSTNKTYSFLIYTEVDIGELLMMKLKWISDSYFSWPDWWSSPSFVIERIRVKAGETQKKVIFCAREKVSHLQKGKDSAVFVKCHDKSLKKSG", "assay": "cell-based or functional assay"}}}
{"binder": "B1", "values": [{"measurement": "IC80 concentration (inhibition of LPL activity)", "setting": "cynomolgus LPL", "value": 0.38, "unit": "nM"}]}
{"binder": "B2", "values": [{"measurement": "IC80 concentration (inhibition of LPL activity)", "setting": "mouse LPL", "value": 0.13, "unit": "nM"}]}
